The assay concerns the target FLAG-Sec23A (human, UniProt Q15436 1-765). In words: pull-down.

Chain of FLAG-Sec23A (Q15436 whole entry): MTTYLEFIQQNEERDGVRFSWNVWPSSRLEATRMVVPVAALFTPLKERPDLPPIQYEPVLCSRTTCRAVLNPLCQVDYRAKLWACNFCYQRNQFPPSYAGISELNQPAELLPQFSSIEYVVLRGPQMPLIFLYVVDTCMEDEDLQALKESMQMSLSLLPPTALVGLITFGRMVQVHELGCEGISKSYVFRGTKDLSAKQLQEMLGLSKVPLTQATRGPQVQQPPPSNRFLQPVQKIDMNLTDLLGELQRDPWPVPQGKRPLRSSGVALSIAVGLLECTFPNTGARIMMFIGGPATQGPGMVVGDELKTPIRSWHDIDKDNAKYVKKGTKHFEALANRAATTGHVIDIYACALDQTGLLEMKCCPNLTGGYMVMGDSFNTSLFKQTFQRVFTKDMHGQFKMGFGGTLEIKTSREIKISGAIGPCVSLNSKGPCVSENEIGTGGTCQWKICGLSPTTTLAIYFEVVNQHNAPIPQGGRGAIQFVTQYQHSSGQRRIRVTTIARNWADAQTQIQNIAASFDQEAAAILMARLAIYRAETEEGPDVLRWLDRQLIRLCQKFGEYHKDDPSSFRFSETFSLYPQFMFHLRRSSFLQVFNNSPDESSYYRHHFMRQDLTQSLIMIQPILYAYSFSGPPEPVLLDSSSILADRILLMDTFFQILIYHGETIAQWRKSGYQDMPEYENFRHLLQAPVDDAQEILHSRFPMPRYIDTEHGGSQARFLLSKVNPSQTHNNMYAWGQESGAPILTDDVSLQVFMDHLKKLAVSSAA

B1: GST-tagged TANGO1-PRD (1651–1907 aa)-His6 (domain or fragment)
chain: NTQNPPRRGPLSQNGSFGPSPVSGGECSPPLTVEPPVRPLSATLNRRDMPRSEFGSVDGPLPHPRWSAEASGKPSPSDPGSGTATMMNSSSRGSSPTRVLDEGKVNMAPKGPPPFPGVPLMSTPMGGPVPPPIRYGPPPQLCGPFGPRPLPPPFGPGMRPPLGLREFAPGVPPGRRDLPLHPRGFLPGHAPFRPLGSLGPREYFIPGTRLPPPTHGPQEYPPPPAVRDLLPSGSRDEPPPASQSTSQDCSQALKQSP
On to B1, for which the binding result is reported as “binds”.

The values above are taken from paper doi:10.1101/452904 (bioRxiv, 2018).
